Data on two proteins can be found in patent US20200271651.

In series [1] the target is T1, fluorescent labeled elastin protein (5-Fam-QXL520 labeled-elastin), P15502.
T1 chain: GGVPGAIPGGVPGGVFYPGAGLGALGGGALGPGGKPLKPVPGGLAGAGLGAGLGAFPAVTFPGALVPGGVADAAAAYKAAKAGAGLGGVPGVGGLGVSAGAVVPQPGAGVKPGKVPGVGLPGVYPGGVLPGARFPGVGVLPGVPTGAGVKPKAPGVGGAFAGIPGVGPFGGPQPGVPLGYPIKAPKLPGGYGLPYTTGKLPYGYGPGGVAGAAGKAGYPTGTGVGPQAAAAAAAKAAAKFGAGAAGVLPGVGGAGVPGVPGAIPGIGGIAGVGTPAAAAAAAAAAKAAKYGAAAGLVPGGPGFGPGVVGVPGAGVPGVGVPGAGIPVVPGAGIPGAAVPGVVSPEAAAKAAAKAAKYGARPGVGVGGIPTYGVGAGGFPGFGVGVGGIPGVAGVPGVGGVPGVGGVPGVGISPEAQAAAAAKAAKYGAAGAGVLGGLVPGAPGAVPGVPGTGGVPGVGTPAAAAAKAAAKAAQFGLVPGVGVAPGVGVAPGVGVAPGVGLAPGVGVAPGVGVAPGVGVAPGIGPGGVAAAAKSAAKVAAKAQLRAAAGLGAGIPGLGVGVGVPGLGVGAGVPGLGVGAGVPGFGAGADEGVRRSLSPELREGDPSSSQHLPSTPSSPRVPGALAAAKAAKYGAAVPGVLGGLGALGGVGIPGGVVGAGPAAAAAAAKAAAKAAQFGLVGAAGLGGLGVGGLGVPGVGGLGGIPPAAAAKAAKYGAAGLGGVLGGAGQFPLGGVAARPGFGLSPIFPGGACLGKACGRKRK

The target in series [2] is T2, FluHSA2 fluorogenic peptide.
T2 chain: TKCATESAVNRRPCFSALK

B1: native Asp f2 (glycosylated form) of Aspergillus fumigatus (protein)
chain: ATPHEPVFFSWDAGAVTSFPIHSSCNATQRRQIEAGLNEAVELARHAKAHILRWGNESEIYRKYFGNRPTMEAVGAYDVIVNGDKANVLFRCDNPDGNCALEGWGGHWRGANATSETVICDRSYTTRRWLVSMCSQGYTVAGSETNTFWASDLMHRLYHVPAVGQGWVDHFADGYDEVIALAKSNGTESTHDSEALQYFALEAYAFDIAAPGVGCAGESHGPDQGHDTGSASAPASTSTSSSSSGSGSGATTTPTDSPSATIDVPSNCHTHEGGQLHCT
B1: the “degradation of 5-Fam-QXL520 labeled elastin (fluorescence), native Asp f2 on 5D7A1-bound beads” value in series [1] is “native Asp f2 is also capable of degrading the human proteins collagen and elastin”. In series [2], the “cleavage of FluHSA2 (10 uM, 16 hours at 22 C; fluorescence), native Asp f2 on anti-Asp f2-immobilized beads” value is recorded as “FluHSA2 was found to exhibit high specificity for cleavage by Asp f2 compared with Asp f3”; the “cleavage of FluHSA2 (fluorescence, Ex 485 nm/Em 535 nm), Asp f2 captured on 5D7A1-bound beads” value is “both native and recombinant Asp f2 cleave the FluHSA2 substrate”. Moreover, the “degradation of FITC conjugated collagen (15 ug/mL; fluorescence), native Asp f2 on 5D7A1-bound beads” value with FITC conjugated collagen is “native Asp f2 is also capable of degrading the human proteins collagen and elastin”.

B2: active recombinant Asp f2 (residues 32-310) (protein)
chain: B1 chain
With B2, in series [2], the “cleavage of FluHSA2 (fluorescence, Ex 485 nm/Em 535 nm), Asp f2 captured on 5D7A1-bound beads” value is “both native and recombinant Asp f2 cleave the FluHSA2 substrate”.
